Patent US20200354462A1

Molecular target: human GnRH receptor expressed on the surface of OC-3-VGH cancer cells (human) (UniProt P30968)
Test: cell-based or functional assay

Chain of UniProt P30968 (P30968 whole entry): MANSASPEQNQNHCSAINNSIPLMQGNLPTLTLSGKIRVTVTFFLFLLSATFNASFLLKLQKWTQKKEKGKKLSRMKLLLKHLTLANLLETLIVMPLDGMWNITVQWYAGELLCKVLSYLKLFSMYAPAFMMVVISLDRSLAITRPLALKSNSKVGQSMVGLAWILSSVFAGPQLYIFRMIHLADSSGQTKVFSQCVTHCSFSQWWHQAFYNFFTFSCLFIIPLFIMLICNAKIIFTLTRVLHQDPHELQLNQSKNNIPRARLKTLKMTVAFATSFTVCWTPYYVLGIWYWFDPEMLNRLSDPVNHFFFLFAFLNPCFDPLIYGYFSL

GnRH gene expression in cancer cells: 50%
Substance: antide (peptide)
